Source: paper doi:10.1101/2021.10.01.462734
Where “and” joins values, the source holds several entries; their conditions need not be identical. Equal entries are not always repeated.

Assays:
[1] = target: GFP-mGR GR^dim/Y545A double mutant (mouse); test: number and brightness
GFP-mGR Y545A (mouse) = test: number and brightness
[2] = target: ancGR2-LBD (ancient variant of the glucocorticoid receptor ligand-binding domain), wild type, DEX-bound; test: SPR
[3] = target: ancGR2-LBD (ancient variant of the glucocorticoid receptor ligand-binding domain), wild type, DEX-bound; test: cross-linking
[4] = target: ancGR2-LBD Y545C mutant, DEX-bound; test: SPR
[5] = target: ancGR2-LBD Y545C mutant, DEX-bound; test: cross-linking

GFP-mGR GR^dim/Y545A double mutant (natural protein)
stoichiometry N [1]: 3

GFP-mGR Y545A (natural protein)
stoichiometry N (GFP-mGR Y545A (mouse)): 4

ancGR2-LBD (ancient variant of the glucocorticoid receptor ligand-binding domain), wild type, DEX-bound (domain or fragment)
Kd [2]: 15.3 µM | kD1 (multisite model, first of two independent binding sites) [2]: 2.2 µM | kD2 (multisite model, second of two independent binding sites) [2]: 27.9 µM | stoichiometry N [3]: 2 and 4

ancGR2-LBD Y545C mutant, DEX-bound (domain or fragment)
kD1 (multisite model, first binding site) [4]: 0.8 µM | stoichiometry N [5]: 2
